Values of other authors, collected in paper PMC2679154.

Biological target: IGF-IR (Homo sapiens) (UniProt P08069)
UniProt P08069, sequence (P08069 31-736, chain 1 of 2): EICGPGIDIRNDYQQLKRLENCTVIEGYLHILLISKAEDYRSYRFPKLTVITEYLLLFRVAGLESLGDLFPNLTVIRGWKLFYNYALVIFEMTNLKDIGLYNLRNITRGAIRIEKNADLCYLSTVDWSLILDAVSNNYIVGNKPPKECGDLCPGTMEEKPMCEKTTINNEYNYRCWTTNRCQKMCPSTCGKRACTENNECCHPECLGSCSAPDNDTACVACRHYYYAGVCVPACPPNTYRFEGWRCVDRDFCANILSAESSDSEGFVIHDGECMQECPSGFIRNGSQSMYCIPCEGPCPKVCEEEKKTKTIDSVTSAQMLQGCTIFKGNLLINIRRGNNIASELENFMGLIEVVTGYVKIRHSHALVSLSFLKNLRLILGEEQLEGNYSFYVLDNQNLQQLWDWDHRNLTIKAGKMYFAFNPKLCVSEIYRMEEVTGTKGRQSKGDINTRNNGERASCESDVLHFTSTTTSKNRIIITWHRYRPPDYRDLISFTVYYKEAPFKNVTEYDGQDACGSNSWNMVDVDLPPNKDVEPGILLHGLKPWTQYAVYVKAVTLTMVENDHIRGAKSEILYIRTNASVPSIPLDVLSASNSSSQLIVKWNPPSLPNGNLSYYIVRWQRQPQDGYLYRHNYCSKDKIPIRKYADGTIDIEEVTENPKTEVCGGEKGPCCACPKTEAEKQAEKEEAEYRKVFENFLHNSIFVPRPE
UniProt P08069, sequence (P08069 741-935, chain 2 of 2): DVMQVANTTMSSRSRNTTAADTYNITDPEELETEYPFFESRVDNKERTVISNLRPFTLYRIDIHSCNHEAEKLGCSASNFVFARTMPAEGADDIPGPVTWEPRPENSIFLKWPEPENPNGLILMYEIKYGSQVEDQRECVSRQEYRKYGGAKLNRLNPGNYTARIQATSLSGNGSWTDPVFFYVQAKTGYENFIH

Question: For insulin (from UniProt P01308), which Kd is on record?
Answer: 0.1 µM
